For test [1], the target named is T1, commercially available recombinant CD16B (Allele NA-2; BSA free; RD Systems) (UniProt O75015 17-200, limits assumed).
T1 construct: also called recombinant CD16B-Fc
As to the kind of experiment: ELISA on recombinant CD16B coated at 80 nM; scFv detected with anti-c-Myc-HRP (10 µg/ml). The method, then: FIG. 3: ELISA on recombinant CD16A-Fc and CD16B. Recombinant CD16A-Fc and CD16B proteins were coated at 80 nM in 0.1 M NaHCO₃, pH 8.8. Wells were blocked with PBS, 2% skimmed milk. The binding of the scFv to the recombinant proteins and to gp34-Fc (negative control) was detected using an anti-c-Myc-HRP conjugate (10 μg/ml). […] Coated recombinant CD16B was directly detected by staining with an anti-His-HRP (1 μg/mL) and coating of the Fc-Fusion proteins was tested by an anti-human IgG-HRP conjugate (0.5 μg/mL). As HRP-substrate, 50 μL of TMB were used. After termination of the reaction with 50 μL 0.5 M H₂SO₄, absorbance was measured at 450 nm.
In order to generate further supporting data concerning the CD16A specificity of the scFvs, an ELISA was performed using the CD16A-Fc fusion protein (Example 1) and commercially available recombinant CD16B-Fc (Allele NA-2; BSA free; RD Systems). A gp34-Fc fusion protein was used as a negative control. The recombinant proteins were coated overnight at a concentration of 80 nM in 100 mM NaHCO₃ at pH 8.8.
Detection of scFv bound to the recombinant proteins was carried out by using an anti-c-myc-HRP conjugate (10 μg/ml). […] Binding to the recombinant CD16B was tested by directly staining with anti-His-HRP (1 μg/mL) and binding to the Fc-Fusion proteins was tested by an anti-human IgG-HRP conjugate (0.15 μg/mL).

For a further test, the target named is T2, NKp46-Fc (UniProt O76036 22-258, limits assumed).
T2 construct: Negative control protein; also called NKp46-Fc control protein; not shown: Fc part, not described
T2 sequence (O76036 22-258 limits assumed): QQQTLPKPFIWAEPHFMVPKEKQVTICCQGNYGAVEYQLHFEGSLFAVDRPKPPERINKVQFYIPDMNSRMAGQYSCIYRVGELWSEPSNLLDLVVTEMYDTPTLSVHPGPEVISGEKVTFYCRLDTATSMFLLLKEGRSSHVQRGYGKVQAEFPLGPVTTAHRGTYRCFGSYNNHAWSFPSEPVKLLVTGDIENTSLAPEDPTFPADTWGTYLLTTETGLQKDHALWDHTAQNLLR
Kind of test: Western blot on NKp46-Fc. Here is the method:
For further characterization all of the anti-CD16A scFv were tested for binding in Western Blot on recombinant CD16A-Fc and NKp46-Fc.
The proteins were transferred on a nitrocellulose membrane by electroblotting. After staining with Ponceau S, the membrane was cut into strips of 5 mm width. Each nitrocellulose strip was individually incubated with scFv (4 μg/ml) in PBS, 0.1% tween, 2% skimmed milk. Detection was carried out with the anti-Penta His HRP-conjugate (1 μg/mL) using diaminobenzidine (DAB) as a peroxidase substrate. […] As an additional positive control, a goat anti-human IgG HRP-conjugate (0.16 μg/mL) was used for detection of the Fc portion of the fusion proteins.

Test [2] has as its target T3, NKp46 extracellular domain fused to zeta chain, on transiently transfected HEK-293 cells (293/NKp46) (human, UniProt O76036 22-258; P20963 31-164).
T3 construct: extracellular domain;domain: transmembrane and cytoplasmic domain; On the cell surface; also called NKp46-transfectants; pcDNA3-NKp46-zeta
Kind of test: flow cytometry on 293/NKp46 cells; scFv, anti-hexa His MAb 13/45/31-2, FITC goat anti-mouse IgG; MFI minus secondary reagents alone. The method, then: (§1) The mean fluorescence intensities obtained from flow cytometric analysis were corrected by subtracting the fluorescence values from cell stainings with the secondary reagents alone, and plotted in the diagram.
(§2) For flow cytometric analysis, the following cell lines were used: BW and BW/CD16A transfectants were cultured as described previously. […] The transient transfections were performed using the calcium phosphate method as described in Example 1 and were used for flow cytometric staining and analysis two days after transient transfection. Flow cytometric staining and analysis was performed as essentially described before.

Test [3] concerns the target T4, human CD16A-Fc^48R/158V fusion protein (human, UniProt P08637 17-208, limits assumed).
T4 construct: Secreted soluble fusion made in HEK-293 cells; also called CD16-Fc; CD16A Fc-fusion protein; not shown: Fc portion of human IgG1
As to the kind of experiment: SPR, BIAcore 2000, CD16A-Fc immobilized on CM5, 1:1 Langmuir. Here is the method:
(§3) The affinity constants (KD values) of the scFv were determined by SPR using the BIAcore 2000 biosensor system (Amersham-Pharmacia). The CD16A-Fc fusion protein and BSA used as a negative control were immobilized on the carboxymethyldextran-coated sensor chip CM5 using conventional NHS/EDC chemistry for the amine coupling procedure (BIAcore). Purified scFvs were diluted in HBS-EP buffer (BIAcore, Uppsala, Sweden). Binding data was generated by passing varying concentrations of the scFv antibodies (100 nM, 200 nM, 400 nM, 800 nM and 1600 nM) over the immobilized antigen. […] All SPR measurements were performed at a constant flow rate of 20 μL/min in HBS-EP buffer at 25° C. Each injected sample (100 μl) was in contact with antigen for 5 minutes. The dissociation was followed for 30 minutes. After each cycle, the surface of the sensor chip was flushed with HBS-EP buffer. Signals from the control channel coated with BSA were automatically subtracted. Kinetic constants were calculated according to the 1/1 Langmuir binding model using the BIAevaluation version 3.0 software (BIAcore).

Test [4] addresses T4, human CD16A-Fc^48R/158V fusion protein. Kind of test: SPR, BIAcore 2000, CD16A-Fc immobilized on CM5, koff/kon. The method, then: as §3
The target of test [5] is T5, native CD16B on human polymorphonuclear cells (neutrophilic granulocytes) (human, UniProt O75015 17-200).
T5 construct: whole, on cells; also called PMN; CD16B-positive granulocytes
T5 sequence (O75015 17-200): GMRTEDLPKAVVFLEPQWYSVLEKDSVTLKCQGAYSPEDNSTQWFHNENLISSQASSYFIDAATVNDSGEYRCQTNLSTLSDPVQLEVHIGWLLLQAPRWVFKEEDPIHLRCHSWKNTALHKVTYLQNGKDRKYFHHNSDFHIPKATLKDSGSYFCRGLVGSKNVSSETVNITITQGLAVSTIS
Kind of test: flow cytometry on freshly isolated PMN; scFv, anti-(His)6 MAb, FITC goat anti-mouse IgG; MFI minus secondary reagents alone. Here is the method: Polymorphonuclear cells (PMN) and natural killer (NK) cells were isolated from peripheral blood from a healthy donor and used for flow cytometric staining and analysis. […] All scFv were used at a concentration of 50 μg/mL and were detected with 10 μg/mL anti-(His)₆ followed by 15 μg/mL FITC-conjugated goat anti-mouse IgG. The mean fluorescence intensities obtained from flow cytometric analysis were corrected by subtracting the fluorescence values from cell stainings with the secondary reagents alone and were plotted in the diagram.
Enrichment of NK cells was performed by negative selection as described above.

Test [6] has as its target T6, human CD16B (NA-2 allele) on stably transfected HEK-293 cells (293/CD16B) (human, UniProt O75015 17-200).
T6 construct: whole, on cells
Kind of test: flow cytometry on 293/CD16B cells; scFv, anti-hexa His MAb 13/45/31-2, FITC goat anti-mouse IgG; MFI minus secondary reagents alone. The method, then: as §1, §2

Test [7] deals with T4, human CD16A-Fc^48R/158V fusion protein. As to the kind of experiment: SPR, kinetic and steady state analysis. Here is the method: as §3
Test [8] shares this target. As to the kind of experiment: SPR, steady state analysis (column Keq). Here is the method:
as §3

Where only a bound is given, the exact number is not on record here.

T6 sequence (O75015 17-200 N65S): as the sequence (O75015 17-200) above, with N49S counted along it
T1 sequence (O75015 17-200 N65S limits assumed): as the sequence (O75015 17-200) above, with N49S counted along it
T4 sequence (P08637 17-208 L66R/F176V limits assumed): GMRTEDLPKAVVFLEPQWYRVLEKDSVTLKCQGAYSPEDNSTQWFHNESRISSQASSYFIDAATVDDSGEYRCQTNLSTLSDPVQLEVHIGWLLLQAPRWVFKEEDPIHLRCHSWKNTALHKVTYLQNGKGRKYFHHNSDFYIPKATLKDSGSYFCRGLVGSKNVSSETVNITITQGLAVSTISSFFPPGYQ
T3 sequence (O76036 other isoform, or with tags, fused parts or gaps limits assumed): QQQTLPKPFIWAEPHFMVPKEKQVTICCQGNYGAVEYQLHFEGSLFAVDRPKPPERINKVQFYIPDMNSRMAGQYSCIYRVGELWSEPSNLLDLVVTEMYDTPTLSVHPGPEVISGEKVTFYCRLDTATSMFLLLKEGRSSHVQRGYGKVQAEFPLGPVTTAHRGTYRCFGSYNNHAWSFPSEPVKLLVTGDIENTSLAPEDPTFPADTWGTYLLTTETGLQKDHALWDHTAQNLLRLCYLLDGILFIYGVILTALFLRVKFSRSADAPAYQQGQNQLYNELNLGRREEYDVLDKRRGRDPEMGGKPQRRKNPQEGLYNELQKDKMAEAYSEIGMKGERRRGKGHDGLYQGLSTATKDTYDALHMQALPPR

B1: affinity matured anti-CD16A scFv 3-LS49 (scFv)
scFv: EVQLVQSGAEVKKPGESLKVSCKASGYTFTSYYMHWVRQAPGQGLEWMGIINPSGGSTSYAQKFQGRVTMTRDTSTSTVYMELSSLRSEDTAVYYCARGSAYYYDFADYWGQGTLVTVSSGSASAPTLKLEEGEFSEARVQPVLTQPLSVSVAPGQTARITCGGNNIGSKNVHWYQQKPGQAPVLVIYRDSSRPSGIPERLSGSNSGDTATLTISRAQAGDEADYYCQVWDDYIVVFGGGTKLTVLGQPKAAPPVTLFPPSAAAGSEQKLISEEDLNSHHHHHH
notes: IMAC-purified from pSKK2
As to B1, the binding result in test [1] is listed as “no binding (tested: not given)”; with NKp46-Fc it was “no binding (tested: 4 µg/ml)”; in test [2], “no binding (tested: 50 µg/mL)”; in test [5], “no binding (tested: 50 µg/mL)”; in [6] it was “no binding (tested: 50 µg/mL)”. This molecule had an off-rate constant (koff) in test [3] of 0.00401 s⁻¹. The kon in test [3] was determined as 29300 M⁻¹ s⁻¹. This molecule also displayed a Kd in [4] of 137 nM.

B2: affinity matured anti-CD16A scFv 4-LS14 (scFv)
scFv: EVQLVQSGAEVKKPGESLKVSCKASGYTFTSYYMHWVRQAPGQGLEWMGIINPSGGSTSYAQKFQGRVTMTRDTSTSTVYMELSSLRSEDTAVYYCARGSAYYYDFADYWGQGTLVTVSSGSASAPTLKLEEGEFSEARVSYELTQPPSVSVTPGQTATITCGANDIGKRNVHWYQQRPGQSPVLVIYQDNKRPSGIPERFSGSNSGNTATLTISGTQAMDEADYYCQVWDNYSVLFGGGTKLTVLGQPKAAPSVTLFPPSAAAGSEQKLISEEDLNSHHHHHH
notes: IMAC-purified from pSKK2
On to B2, for which the binding result in [1] is given as “no binding (tested: not given)”; with NKp46-Fc, “no binding (tested: 4 µg/ml)”; in test [2], “no binding (tested: 50 µg/mL)”; in test [5], “no binding (tested: 50 µg/mL)”; in test [6], “no binding (tested: 50 µg/mL)”. In [3], this molecule displayed a koff of 0.00557 s⁻¹. This molecule had a kon in test [3] of 50900 M⁻¹ s⁻¹. The same molecule displayed a Kd in test [4] of 109 nM.

B3: affinity matured anti-CD16A scFv 3-LB3 (scFv)
scFv: EVQLVQSGAEVKKPGESLKVSCKASGYTFTSYYMHWVRQAPGQGLEWMGIINPSGGSTSYAQKFQGRVTMTRDTSTSTVYMELSSLRSEDTAVYYCARGSAYYYDFADYWGQGTLVTVSSGSASAPTLKLEEGEFSEARVSYELTQPLSESVAQGQTARITCGGNNIESRNVHWYQQKPGQAPVLVIYRDNNRPSGIPERFSGSNSGNMATLTISRAQAGDAADYYCQVWDNYTVLFGGGTKLTVLGQPKAAPSVTLFPPSAAAGSEQKLISEEDLNSHHHHHH
notes: IMAC-purified from pSKK2
With B3, the binding result in [1] is reported as “no binding (tested: not given)”; with NKp46-Fc, “no binding (tested: 4 µg/ml)”; in [2], “no binding (tested: 50 µg/mL)”; in [5] it was “no binding (tested: 50 µg/mL)”; in test [6], “no binding (tested: 50 µg/mL)”. The molecule also showed a koff in test [3] of 0.00297 s⁻¹. In addition, in test [3], the kon came to 21600 M⁻¹ s⁻¹. Besides, the affinity in test [4], expressed as Kd, was 138 nM.

B4: affinity matured anti-CD16A scFv 3-LB5 (scFv)
scFv: EVQLVQSGAEVKKPGESLKVSCKASGYTFTSYYMHWVRQAPGQGLEWMGIINPSGGSTSYAQKFQGRVTMTRDTSTSTVYMELSSLRSEDTAVYYCARGSAYYYDFADYWGQGTLVTVSSGSASAPTLKLEEGEFSEARVSYELTQPPSVAVAPGKTARITCGGNNIGSKNVHWYQQKPGQAPVLVIYRDSNRPSGIPERFSGSNSGNTATLTISRAQAGDEADFYCQVWDNYIVLFGGGTKLTVLGQPKAAPSVTLFPPSAAAGSEQKLISEEDLNSHHHHHH
notes: IMAC-purified from pSKK2; oligomeric state not analysed
As for B4, the binding result was “no binding (tested: not given)” in test [1]; “no binding (tested: 4 µg/ml)” with NKp46-Fc; “no binding (tested: 50 µg/mL)” in test [2]; “no binding (tested: 50 µg/mL)” in [5]; “no binding (tested: 50 µg/mL)” in test [6]. Also, in test [3], the koff worked out at 0.00297 s⁻¹. For the same molecule, in test [3], the on-rate (kon) was determined as 73300 M⁻¹ s⁻¹. This molecule also displayed a Kd in test [4] of 40.5 nM.

B5: affinity matured anti-CD16A scFv 3-LB6 (scFv)
scFv: EVQLVQSGAEVKKPGESLKVSCKASGYTFTSYYMHWVRQAPGQGLEWMGIINPSGGSTSYAQKFQGRVTMTRDTSTSTVYMELSSLRSEDTAVYYCARGSAYYYDFADYWGQGTLVTVSSGSASAPTLKLEEGEFSEARVQAVLTQPPSVSVAPGQTARIPCEGNNIGSKNVHWYRQKPGQVPVLVMYDDSDRPSGIPERFSGSNSGNTATLTISGTQAMDEADYYCQVWDNYSVLFGGGTKLTVLGQPKAAPSVTLFPPSAAAGSEQKLISEEDLNSHHHHHH
notes: IMAC-purified from pSKK2
Consider B5, for which the binding result is given as “no binding (tested: not given)” in [1]; “no binding (tested: 4 µg/ml)” with NKp46-Fc; “no binding (tested: 50 µg/mL)” in test [2]; “no binding (tested: 50 µg/mL)” in test [5]; “no binding (tested: 50 µg/mL)” in test [6]. For the same molecule, the “fold improvement of affinity over parental clone 50NI” value in [7] was over 20 fold. This molecule yielded an off-rate constant (koff) in test [3] of 0.00652 s⁻¹. The same molecule displayed a kon in test [3] of 54800 M⁻¹ s⁻¹. The results for the dissociation constant Kd in test [4] and in test [8] were 119 nM and 106 nM, respectively.

For the origin of these results see US20090214574A1 (AFFIMED, published 2009).
